These results are taken from paper PMC3298473, “Effects of partner proteins on BCA2 RING ligase activity” (BMC Cancer, 2012).

Experiment [1] has as its target T1, Recombinant Flag-BCA2 RING mutant (C228/231A), purified (human, UniProt Q9Y4L5 1-304, C228/231A | C228/231A).
T1 construct: BCA2, a 304 amino acid protein, with C228A and C231A in the RING domain (ligase-dead); also called RING mt; source: recombinant, purified
The experiment can be described thus: pull-down; purified recombinant Flag-BCA2 (wild type or mutants) incubated with sepharose-immobilised GST control or GST-14-3-3σ from bacterial cell lysates; immunoblot. The settings on record: both partners purified. For orientation: A western blot detects proteins with antibodies after separation by electrophoresis.

Experiment [2] concerns the target T2, Recombinant Flag-BCA2, wild type, purified (human, UniProt Q9Y4L5 1-304).
T2 construct: BCA2, a 304 amino acid protein; also called Purified recombinant wild-type BCA2; source: recombinant, purified
The description is as above. The settings on record: both partners purified.

T1 sequence (Q9Y4L5 other isoform, or with tags, fused parts or gaps C228/231A | C228/231A | C228/231A | C228/231A | mutant): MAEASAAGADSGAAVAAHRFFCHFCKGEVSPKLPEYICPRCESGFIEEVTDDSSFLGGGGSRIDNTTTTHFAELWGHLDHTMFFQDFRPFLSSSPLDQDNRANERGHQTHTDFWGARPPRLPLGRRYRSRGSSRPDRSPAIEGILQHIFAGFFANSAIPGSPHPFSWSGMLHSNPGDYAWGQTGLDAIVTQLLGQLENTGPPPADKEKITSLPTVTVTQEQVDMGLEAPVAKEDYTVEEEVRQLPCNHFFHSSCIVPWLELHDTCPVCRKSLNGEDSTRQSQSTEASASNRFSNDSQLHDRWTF
T2 sequence (Q9Y4L5 whole entry): as the sequence (Q9Y4L5 other isoform, or with tags, fused parts or gaps C228/231A | C228/231A | C228/231A | C228/231A | mutant) above, with A228C, A231C counted along it

B1: GST-tagged 14-3-3σ (natural protein, human, UniProt P31947 1-248, looked up)
chain: MERASLIQKAKLAEQAERYEDMAAFMKGAVEKGEELSCEERNLLSVAYKNVVGGQRAAWRVLSSIEQKSNEEGSEEKGPEVREYREKVETELQGVCDTVLGLLDSHLIKEAGDAESRVFYLKMKGDYYRYLAEVATGDDKKRIIDSARSAYQEAMDISKKEMPPTNPIRLGLALNFSVFHYEIANSPEEAISLAKTTFDEAMADLHTLSEDSYKDSTLIMQLLRDNLTLWTADNAGEEGGEAPQEPQS
notes: 14-3-3σ; the GST construct is not described in the methods; also called GST-14-3-3σ; source: bacterial cell lysates, immobilised on sepharose
Regarding B1, the binding result in experiment [1] and in experiment [2] was “binds” throughout.
